Test results as given in paper PMC9482650, “Quantitative fragmentomics allow affinity mapping of interactomes” (Nature Communications, 2022).

T1: GRIP1_7, Q9Y3R0
T1 sequence (Q9Y3R0 999-1096, limits assumed, looked up): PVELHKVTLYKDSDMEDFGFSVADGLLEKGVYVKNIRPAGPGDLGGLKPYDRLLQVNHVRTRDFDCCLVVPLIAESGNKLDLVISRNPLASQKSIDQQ

T2: MPP6, Q9NZW5
T2 sequence (Q9NZW5 125-219, limits assumed, looked up): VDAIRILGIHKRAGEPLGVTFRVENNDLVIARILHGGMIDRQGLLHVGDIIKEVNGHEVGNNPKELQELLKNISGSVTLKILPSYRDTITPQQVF

T3: PDZRN3_1, Q9UPQ7
T3 sequence (Q9UPQ7 244-349, limits assumed, looked up): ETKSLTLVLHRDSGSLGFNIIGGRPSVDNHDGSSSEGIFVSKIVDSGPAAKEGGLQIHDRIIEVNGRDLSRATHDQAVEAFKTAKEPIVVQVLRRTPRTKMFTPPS

T4: GRIP1_5, Q9Y3R0
T4 sequence (Q9Y3R0 568-668, limits assumed, looked up): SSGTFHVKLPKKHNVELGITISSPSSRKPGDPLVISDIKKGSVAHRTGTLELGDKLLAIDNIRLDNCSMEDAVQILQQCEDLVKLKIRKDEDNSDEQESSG

T5: PCLO, Q9Y6V0
T5 sequence (Q9Y6V0 4491-4600, limits assumed, looked up): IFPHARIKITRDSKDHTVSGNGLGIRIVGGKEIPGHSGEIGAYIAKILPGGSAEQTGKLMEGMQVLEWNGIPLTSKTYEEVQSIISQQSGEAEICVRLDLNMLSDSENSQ

T6: SYNJ2BP, P57105
T6 sequence (P57105 8-110, limits assumed, looked up): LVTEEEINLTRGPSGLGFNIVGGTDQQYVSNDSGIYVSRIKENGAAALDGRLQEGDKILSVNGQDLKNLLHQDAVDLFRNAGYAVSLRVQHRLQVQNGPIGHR

T7: PTPN13_1, Q12923
T7 sequence (Q12923 1088-1188, limits assumed, looked up): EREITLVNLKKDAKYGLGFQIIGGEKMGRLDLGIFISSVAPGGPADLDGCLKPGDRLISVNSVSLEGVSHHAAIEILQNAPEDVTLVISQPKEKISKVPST

T8: LIN7A, O14910
T8 sequence (O14910 103-200, limits assumed, looked up): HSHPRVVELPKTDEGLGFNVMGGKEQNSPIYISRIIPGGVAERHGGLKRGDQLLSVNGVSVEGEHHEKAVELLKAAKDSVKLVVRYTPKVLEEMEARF

T9: MPP7, Q5T2T1
T9 sequence (Q5T2T1 134-230, limits assumed, looked up): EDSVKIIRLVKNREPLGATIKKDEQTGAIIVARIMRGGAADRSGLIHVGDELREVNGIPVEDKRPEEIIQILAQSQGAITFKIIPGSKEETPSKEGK

T10: ARHGEF11, O15085
T10 sequence (O15085 42-136, limits assumed, looked up): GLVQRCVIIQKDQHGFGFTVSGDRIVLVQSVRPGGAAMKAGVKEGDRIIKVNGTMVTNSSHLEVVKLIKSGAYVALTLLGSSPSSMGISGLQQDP


Tests used:
Assay in all cases: holdup assay
Design in all cases: key: below the threshold = too weak to quantify, mostly under pKd 3.1 to 4
Conditions in all cases: plain residues with an end cap or a label only (N-terminal biotin on a linker: ado-ado)
[1] = target: MAST2, Q6P0Q8
Sequence of MAST2, Q6P0Q8 (Q6P0Q8 1099-1202): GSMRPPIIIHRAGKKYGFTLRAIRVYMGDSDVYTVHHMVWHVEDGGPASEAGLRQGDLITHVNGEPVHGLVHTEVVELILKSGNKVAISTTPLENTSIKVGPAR

[2] = target: GRIP2_3, Q9C0E4
Sequence of GRIP2_3, Q9C0E4 (Q9C0E4 238-339): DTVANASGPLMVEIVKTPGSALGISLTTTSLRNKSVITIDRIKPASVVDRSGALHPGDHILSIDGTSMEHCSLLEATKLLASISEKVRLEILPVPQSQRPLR

[3] = target: SCRIB_2, Q14160
Sequence of SCRIB_2, Q14160 (Q14160 857-960): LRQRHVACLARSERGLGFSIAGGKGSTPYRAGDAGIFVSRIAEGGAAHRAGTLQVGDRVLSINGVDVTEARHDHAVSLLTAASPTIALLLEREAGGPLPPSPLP

[4] = target: T1, GRIP1_7, Q9Y3R0
[5] = target: DLG4_2, P78352
Sequence of DLG4_2, P78352 (P78352 155-259): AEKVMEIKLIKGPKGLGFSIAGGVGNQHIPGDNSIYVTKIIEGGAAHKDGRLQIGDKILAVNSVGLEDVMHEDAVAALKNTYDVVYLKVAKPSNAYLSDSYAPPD

[6] = target: T2, MPP6, Q9NZW5
[7] = target: T3, PDZRN3_1, Q9UPQ7
[8] = target: GRIP2_6, Q9C0E4
Sequence of GRIP2_6, Q9C0E4 (Q9C0E4 648-740): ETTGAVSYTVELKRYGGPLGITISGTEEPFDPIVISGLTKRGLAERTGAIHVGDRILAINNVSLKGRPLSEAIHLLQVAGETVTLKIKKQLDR

[9] = target: MAGI1_2, Q96QZ7
Sequence of MAGI1_2, Q96QZ7 (Q96QZ7 456-580): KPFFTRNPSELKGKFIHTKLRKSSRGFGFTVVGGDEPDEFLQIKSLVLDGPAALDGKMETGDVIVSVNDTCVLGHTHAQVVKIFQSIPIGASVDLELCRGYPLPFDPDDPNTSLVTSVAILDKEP

[10] = target: T4, GRIP1_5, Q9Y3R0
[11] = target: T5, PCLO, Q9Y6V0
[12] = target: AHNAK1, Q09666
Sequence of AHNAK1, Q09666 (Q09666 4-100): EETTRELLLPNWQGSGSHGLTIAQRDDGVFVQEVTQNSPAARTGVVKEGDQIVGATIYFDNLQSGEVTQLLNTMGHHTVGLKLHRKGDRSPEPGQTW

[13] = target: Inadl_4, Q8NI35
Sequence of Inadl_4, Q8NI35 (Q8NI35 547-651): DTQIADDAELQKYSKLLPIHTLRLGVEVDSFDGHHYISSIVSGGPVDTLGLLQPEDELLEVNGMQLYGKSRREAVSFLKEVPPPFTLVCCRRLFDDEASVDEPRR

[14] = target: NHERF4_2, Q86UT5
Sequence of NHERF4_2, Q86UT5 (Q86UT5 220-308): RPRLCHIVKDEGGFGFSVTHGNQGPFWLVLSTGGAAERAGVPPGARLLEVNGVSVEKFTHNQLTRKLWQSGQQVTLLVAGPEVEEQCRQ

[15] = target: T6, SYNJ2BP, P57105
[16] = target: MAGI2_3, Q86UL8
Sequence of MAGI2_3, Q86UL8 (Q86UL8 600-682): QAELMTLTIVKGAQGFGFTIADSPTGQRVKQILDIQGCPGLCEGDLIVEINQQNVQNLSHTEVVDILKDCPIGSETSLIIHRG

[17] = target: GRID2IP_1, A4D2P6
Sequence of GRID2IP_1, A4D2P6 (A4D2P6 1-87): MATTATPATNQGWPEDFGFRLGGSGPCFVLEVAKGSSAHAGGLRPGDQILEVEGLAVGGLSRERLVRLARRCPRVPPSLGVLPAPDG

[18] = target: FRMPD2_1, Q68DX3
Sequence of FRMPD2_1, Q68DX3 (Q68DX3 770-861): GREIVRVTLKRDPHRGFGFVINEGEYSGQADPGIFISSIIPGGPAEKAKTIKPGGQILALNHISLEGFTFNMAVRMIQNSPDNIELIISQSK

[19] = target: T7, PTPN13_1, Q12923
[20] = target: MAGI1_1, Q96QZ7
Sequence of MAGI1_1, Q96QZ7 (Q96QZ7 1-106): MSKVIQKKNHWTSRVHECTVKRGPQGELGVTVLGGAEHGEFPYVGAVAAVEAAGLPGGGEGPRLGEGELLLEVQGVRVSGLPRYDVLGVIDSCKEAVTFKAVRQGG

[21] = target: T8, LIN7A, O14910
[22] = target: T9, MPP7, Q5T2T1
[23] = target: GIPC2, Q8TF65
Sequence of GIPC2, Q8TF65 (Q8TF65 112-203): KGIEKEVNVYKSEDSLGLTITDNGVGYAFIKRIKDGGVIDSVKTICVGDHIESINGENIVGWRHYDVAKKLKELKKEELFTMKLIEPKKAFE

[24] = target: HTRA1, Q92743
Sequence of HTRA1, Q92743 (Q92743 360-477): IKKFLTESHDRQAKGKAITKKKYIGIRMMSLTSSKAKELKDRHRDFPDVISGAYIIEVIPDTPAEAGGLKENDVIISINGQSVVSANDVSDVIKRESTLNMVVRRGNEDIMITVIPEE

[25] = target: MAGI2_5, Q86UL8
Sequence of MAGI2_5, Q86UL8 (Q86UL8 915-1017): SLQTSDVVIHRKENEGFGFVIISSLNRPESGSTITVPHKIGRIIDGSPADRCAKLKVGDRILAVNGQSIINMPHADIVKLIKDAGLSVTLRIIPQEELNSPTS

[26] = target: T10, ARHGEF11, O15085
[27] = target: GRASP, Q7Z6J2
Sequence of GRASP, Q7Z6J2 (Q7Z6J2 96-193): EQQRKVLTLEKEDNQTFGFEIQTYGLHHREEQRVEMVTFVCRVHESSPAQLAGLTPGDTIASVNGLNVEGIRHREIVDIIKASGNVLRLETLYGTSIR

| Binder | pKd [1] | pKd [2] | pKd [3] | pKd [4] | pKd [5] | pKd [6] | pKd [7] | pKd [8] | pKd [9] | pKd [10] | pKd [11] | pKd [12] | pKd [13] | pKd [14] | pKd [15] | pKd [16] | pKd [17] | pKd [18] | pKd [19] | pKd [20] | also measured |
| --- | --- | --- | --- | --- | --- | --- | --- | --- | --- | --- | --- | --- | --- | --- | --- | --- | --- | --- | --- | --- | --- |
| GNDPDRGTSI [GRID2, O43424] | 4.45 | below the threshold | below the threshold | below the threshold | below the threshold | below the threshold | 3.88 | below the threshold | below the threshold | below the threshold | below the threshold | below the threshold | below the threshold | below the threshold | 4.72 | below the threshold | below the threshold | below the threshold | below the threshold | below the threshold | pKd [21]: below the threshold; pKd [22]: below the threshold; pKd [23]: below the threshold; pKd [24]: below the threshold; pKd [25]: below the threshold; pKd [26]: below the threshold; pKd [27]: below the threshold |
| SGDGKTSVWI [GJC1, P36383] | below the threshold | below the threshold | below the threshold | below the threshold | 3.51 | below the threshold | below the threshold | 3.55 | below the threshold | below the threshold | below the threshold | below the threshold | below the threshold | below the threshold | below the threshold | below the threshold | below the threshold | 3.71 | below the threshold | below the threshold | pKd [21]: below the threshold; pKd [22]: below the threshold; pKd [23]: below the threshold; pKd [24]: 4.93; pKd [25]: below the threshold; pKd [26]: 3.61; pKd [27]: below the threshold |

Further lines, with some results ahead:

| pKd [1] | pKd [2] | pKd [3] | pKd [4] | pKd [5] | pKd [6] | pKd [7] | pKd [8] | pKd [9] | pKd [10] | pKd [11] | pKd [12] | pKd [13] | pKd [14] | pKd [15] | pKd [16] | pKd [17] | pKd [18] | pKd [19] | pKd [20] | Binder | also measured |
| --- | --- | --- | --- | --- | --- | --- | --- | --- | --- | --- | --- | --- | --- | --- | --- | --- | --- | --- | --- | --- | --- |
| 5.06 | below the threshold | 3.68 | below the threshold | 4.21 | 3.81 | below the threshold | below the threshold | below the threshold | below the threshold | below the threshold | below the threshold | below the threshold | 3.56 | below the threshold | below the threshold | below the threshold | below the threshold | below the threshold | below the threshold | EPAKETTTNV [SLC2A3, P11169] | pKd [21]: below the threshold; pKd [22]: below the threshold; pKd [23]: below the threshold; pKd [24]: 4.04; pKd [25]: below the threshold; pKd [26]: 4; pKd [27]: 3.69 |
| 4.27 | below the threshold | below the threshold | below the threshold | 3.91 | below the threshold | below the threshold | below the threshold | below the threshold | below the threshold | below the threshold | below the threshold | below the threshold | below the threshold | 4.15 | below the threshold | below the threshold | below the threshold | below the threshold | below the threshold | PGKKPEDSRV [SLCO2B1, O94956] | pKd [21]: below the threshold; pKd [22]: below the threshold; pKd [23]: below the threshold; pKd [24]: below the threshold; pKd [25]: below the threshold; pKd [26]: 3.48; pKd [27]: below the threshold |
| below the threshold | below the threshold | below the threshold | below the threshold | below the threshold | below the threshold | below the threshold | 4.41 | below the threshold | below the threshold | below the threshold | below the threshold | below the threshold | below the threshold | below the threshold | below the threshold | below the threshold | 3.55 | 3.52 | below the threshold | DFKHTKSFII [JAM2, P57087] | pKd [21]: below the threshold; pKd [22]: 3.75; pKd [23]: below the threshold; pKd [24]: 4.97; pKd [25]: below the threshold; pKd [26]: below the threshold; pKd [27]: below the threshold |
